Assays:
cornea = assay: Cornea assay for angiogenic factors; assay type: in vivo, rat; conditions: rat, in vivo
Text: Another assay for modulators of angiogenesis is an in vivo assay for assessing the effect of a suspected modulator in the presence of an ECM signaling molecule-related biomaterial, such as Cyr61, on angiogenesis is the Cornea Assay. The Cornea Assay takes advantage of the absence of blood vessels in the cornea, which in the presence of an angiogenic factor, results in the detectable development of capillaries extending from the sclera into the cornea. Friedlander et al., Science 270:1500-1502 (1995). This ingrowth of new blood vessels from the sclera can be microscopically monitored. Further, the visually determined rate of migration can be used to assess changes in the rate of angiogenesis. These cornea assays may be performed using a wide variety of animal models. Preferably, the cornea assays are performed using rats. By way of example, an assay for suspected modulators of Cyr61 using this assay is disclosed. To perform this assay, Cyr61 is initially titrated using primary capillary endothelial cells to determine effective concentrations of Cyr61. Subsequently, Cyr61, in the presence or absence of a suspected modulator, is surgically implanted into the corneas of mammalian laboratory animals, e.g., rabbits or rats. In a preferred embodiment, Cyr61 (or Cyr61 and a suspected modulator) is embedded in a biocompatible matrix, using matrix materials and techniques that are standard in the art. Subsequently, eyes containing implants are visually observed for growth of the readily visible blood vessels within the eye. Control implantations may consist of physiologically balanced buffers embedded in the same type of matrix and implanted into eyes of the same type of laboratory animal receiving the Cyr61-containing implants.
Although rats of various sizes can be used in the cornea assay, a preferred size for the rats is 150-200 g/animal. Anesthesia is induced with Methoxyflurane and is maintained for 40-60 minutes with sodium pentobarbital (50 mg/kg, delivered intraperitoneally). The eyes are gently opened and secured in place by clamping the upper eyelid with a non-traumatic hemostat. Two drops of sterile proparacaine hydrochloride (0.5%) are then placed on each eye as to effect local anesthesia. Using a suitable surgical blade such as a No. 11 Bard Parker blade, an approximately 1.5 mm incision is made approximately 1 mm from the center of the cornea. […] Once the cornea pocket is made, the spatula is removed and the distance between the limbus and base of the pocket is measured to make sure the separation is at least about 1 mm. […]
Following surgery, animals are examined daily for seven days with the aid of a stereomicroscope to check for inflammation and responses. […] During this seven day period, animals are monitored for implant position and corneal exudate. […]

NIH 3T3 cells = conditions: U.S. Pat. No. 5,408,040; cited from earlier work
[1] = Heparin binding assay (salt elution from heparin-Sepharose/agarose)
[2] = tested on: 1064SK primary human foreskin fibroblasts; assay: Fibroblast adhesion assay (methylene blue, A620); assay type: cell-based; conditions: protein coated on wells
Method: The ability of Cyr61 to mediate cell adhesion in normal fibroblasts was investigated. Microtiter wells were coated with purified recombinant Cyr61 protein, and 1064SK primary human foreskin fibroblasts were allowed to adhere under serum-free conditions. […] 50 μl cell suspensions were plated on microtiter wells coated with varying concentrations (0.5-5.0 μg/ml) of Cyr61 protein. After incubation at 37° C. for 30 minutes, adherent cells were fixed and stained with methylene blue.
In another experiment, microtiter wells were coated with either BSA, Cyr61 (2 μg/ml), or vitronectin (VN; 0.5 μg/ml) and blocked with affinity-purified anti-Cyr61 antibodies for one hour at 37° C. before 1064SK cells were plated.
The effects of divalent cations in cell adhesion to Cyr61 was also investigated. […] Data are means from triplicate determinations. […] Inhibition by Ca^2+ is characteristic of adhesion through some members of the β1 family of integrins, including receptors that bind type I collagen, laminin, and vitronectin (integrins α2β1, α6β1, and αVβ1) in fibroblasts, as well as the lymphocyte-specific integrin αLβ2.
The effects of RGD peptides on Cyr61-mediated fibroblast binding was tested by plating cells in wells coated with Cyr61 (2 μg/ml). Type I collagen (2 μg/ml) or vitronectin (0.5 μg/ml), 2 mM GRGDSP or GRGESP peptide was then added.
Cells were also pre-incubated with 40 μg/ml monoclonal antibodies against the integrin α5 or the integrin αV subunits at room temperature for 30 minutes, then plated on wells coated with Cyr61 (2 μg/ml), vitronectin (0.5 μg/ml) or fibronectin (FN, 1 μg/ml). […] The data are means, representative of three experiments.
The 1064 SK cells were also analyzed using the monoclonal antibody JBIA, which binds the β1 integrin subunit. Cells were pre-incubated with the antibody (50 μg/ml) before plating on microtiter wells coated with Cyr61 (2 μg/ml), Type I collagen (2 μg/ml), or vitronectin (0.5 μg/ml). […] Data are means, representative of three experiments.
To identify the specific β1 integrin that mediates fibroblast adhesion to Cyr61, the inhibitory effects of function-blocking monoclonal antibodies were tested against various integrin α subunits. […] The data are means, representative of at least three experiments.

HUVE cells [3] = assay: HUVE cell adhesion to wild-type and double-mutant Cyr61; assay type: cell-based, human
Method: Immobilized cells were stained with methylene blue and absorbances (A620) were recorded. relative binding capacities (binding of cells not exposed to a pre-incubation compound defined as 100%) are presented in Table III.

[4] = tested on: primary human foreskin fibroblasts; assay: Cyr61-regulated gene expression (multi-gene blot, Northern); assay type: cell-based
Method: Purified, soluble, recombinant Cyr61 protein was added to cultures of primary human foreskin fibroblasts for 24 hours. From these cells, mRNA was isolated for preparation of probes to hybridize to a multi-gene blot (Clontech Atlas Human Array 1.2 cat no. 7850-1) containing about 650 genes. The levels of expression of these genes in Cyr61-treated cells were compared to that of control cells. […] These findings have been confirmed by Northern blot analysis showing increases or decreases of the mRNAs in question in Cyr61-treated cells. A time course of expression changes has been established. In particular, by 6 hours after its addition, Cyr61 has induced expression of VEGF-A mRNA and the induction is still evident at 12 and 24 hours post-addition. Also at 12 and 24 hours post-addition, Cyr61 has induced expression of VEGF-A polypeptide. With respect to VEGF-C, induction of mRNA is clearly evident 12 hours after addition of Cyr61 and the induction persists at least through 24 hours post-addition. Cyr61 is expected to induce the expression of VEGF-C polypeptide with similar kinetics.

HUVE cells [5] = assay: HUVE cell adhesion to hCyr61-coated plates; assay type: cell-based, human; conditions: serum-free conditions
Method: Immunological plates (96-well ProBind assay plates, Falcon) were coated with 0.1-30 μg/ml hCyr61, fibronectin (Gibco BRL) or vitronectin (Gibco BRL) in phosphate-buffered saline (PBS) containing 0.1% protease-free BSA (Sigma) for 16 hrs at 4° C. The wells were blocked with 1% BSA in PBS for 1 hr at room temperature and washed with PBS. […] In some experiments, fbs was added to 5-10%. Also, in experiments involving vitronectin-coateci plates, endogenous vitronectin was removed from fbs by immunoaffinity chromatography using bovine polyclonal anti-vitronectin antibodies (Gibco). Norris et al., J. Cell Sci. 95:255-262 (1990). Cells were plated at 10^4 cells/well. After 2 hours, cells were fixed with 4% paraformaldehyde, stained with methylene blue and quantified as described. Oliver et al., J. Cell Sci. 92:513-518 (1989).
The ability of HUVE cells to adhere to hCyr61-coated plates in the presence of mock-immunodepleted fbs and serum immunodepleted with anti-bovine vitronectin antibodies were compared. […] The addition of vitronectin (30 μg/ml) to vitronectin-immunodepleted serum restored the ability of HUVE cells to adhere and spread on hCyr61-coated plates to the same level observed when whole serum was used in the cell attachment assay. […]
Additionally, HUVE cell attachment and spreading in the presence of an increasing quantity of vitronectin was examined. […]

[6] = tested on: 1064SK human skin fibroblasts; assay: Human skin fibroblast migration; assay type: cell-based; conditions: 1064SK cells

B1: CTGF: Human ortholog of Fisp12, SEQ ID NO:8 (protein, listed as Homo sapiens)
chain: MTAASMGPVRVAFVVLLALCSRPAVGQNCSGPCRCPDEPAPRCPAGVSLVLDGCGCCRVCAKQLGELCTERDPCDPHKGLFCDFGSPANRKIGVCTAKDGAPCIFGGTVYRSGESFQSSCKYQCTCLDGAVGCMPLCSMDVRLPSPDCPFPRRVKLPGKCCEEWVCDEPKDQTVVGPALAAYRLEDTFGPDPTMIRANCLVQTTEWSACSKTCGMGISTRVTNDNASCRLEKQSRLCMVRPCEADLEENIKKGKKCIRTPKISKPIKFELSGCTSMKTYRAKFCGVCTDGRCCTPHRTTTLPVEFKCPDGEVMKKNMMFIKTCACHYNCPGDNDIFESLYYRKMYGDMA
- angiogenic effect in cornea assay (cornea): confirm the effect of angiogenic factors
- migration of NIH 3T3 and BASM cells (reported) (NIH 3T3 cells): reported to induce the migration

B2: DM: Cyr61 double mutant with both heparin-binding motifs mutated (SEQ ID NO:30 region) (protein)
chain: TCPAACHCPLEAPKCAPGVGLVRDGCGCCKVCAKQLNEDCSKTQPCDHTKGLECNFGASSTALKGICRAQSEGRPCEYNSRIYQNGESFQPNCKHQCTCIDGAVGCIPLCPQELSLPNLGCPNPRLVKVSGQCCEEWVCDEDSIKDSLDDQDDLLGLDASEVELTRNNELIAIGKGSSLKRLPVFGTEPRVLFNPLHAHGQKCIVQTTSWSQCSKSCGTGISTRVTNDNPECRLVKETRICEVRPCGQPVYSSSLKAGAACSATAKSPEPVRFTYAGCSSVAAYAPKYCGCVDGRCCTPLQTRTVKMRFRCEDGEMFSKNVMMIQSCKCNYNCPHPNEASFRLYSLFNDIHKFRD
- heparin binding [1]: severely deficient in heparin binding
- NaCl concentration of elution from heparin-Sepharose/agarose ([1]; increasing salt concentrations): up to 0.25 M NaCl
- support of 1064SK fibroblast adhesion [2]: unable to support 1064SK fibroblast adhesion at any concentration tested
- HUVEC binding (HUVE cells [3]): still mediated HUVEC binding
- induction of VEGF, MMP1, MMP3 etc. [4]: do not induce the expression of the above-referenced genes

B3: human Cyr61: Human Cyr61, 381 amino acids, SEQ ID NO:4, expressed in the baculovirus system (protein, listed as Homo sapiens)
chain: MSSRIARALALVVTLLHLTRLALSTCPAACHCPLEAPKCAPGVGLVRDGCGCCKVCAKQLNEDCSKTQPCDHTKGLECNFGASSTALKGICRAQSEGRPCEYNSRIYQNGESFQPNCQHQCTCIDGAVGCIPLCPQELSLPNLGCPNPRLVKVTGQCCEEWVCDEDSIKDPMEDQDGLLGKELGFDASEVELTRNNELIAVGKGRSLKRLPVFGMEPRILYNPLQGQKCIVQTTSWSQCSKTCGTGISTRVTNDNPECRLVKETRICEVRPCGQPVYSSLKKGKKCSKTKKSPEPVRFTYAGCLSVKKYRPKYCGSCVDGRCCTPQLTRTVKMRFRCEDGETFSKNVMMIQSCKCNYNCPHANEAAFPFYRLFNDIHKFRD
- heparin binding [1]: quantitatively bound to heparin-agarose
- HUVE cell attachment and spreading (HUVE cells [5]): mediated cell attachment but not spreading
- migration of human fibroblasts [6]: induced migration of the human fibroblast cells
